In paper PMC5387809, “The Combination of Computational and Biosensing Technologies for Selecting Aptamer against Prostate Specific Antigen”:

What follows are binders tested against T1, prostate specific antigen (PSA) (human, UniProt P07288 25-261) (assay: QCM; 2 ng/ml PSA injected; PBS (10 mM Na2HPO4, 137 mM NaCl, 2 mM KH2PO4, 2.7 mM KCl), pH 7.4; SPR at 25 C, 50 ul/min; PSA 2 ng/ml; DNA/PEG thiol SAM on gold; QCM temperature not stated). Settings: protein: commercial; hairpin (predicted).
T1 sequence (P07288 25-261): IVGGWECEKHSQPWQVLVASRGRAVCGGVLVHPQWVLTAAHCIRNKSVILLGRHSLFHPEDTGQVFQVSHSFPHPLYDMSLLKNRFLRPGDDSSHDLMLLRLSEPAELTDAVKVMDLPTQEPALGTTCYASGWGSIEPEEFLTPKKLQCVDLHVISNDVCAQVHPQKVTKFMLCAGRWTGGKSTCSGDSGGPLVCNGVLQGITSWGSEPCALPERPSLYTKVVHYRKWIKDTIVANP

Compared with TTTTTCCGCACAACTTGCCATCAAATATCTTT (ssDNA, 5' C6 thiol) [PSAG118], TTTTTACGCACCGGGTACGTTTTTTGGCCTTT (ssDNA, 5' C6 thiol) [PSAG119] is higher in binding signal: 24.9 ± 3.9 Hz (frequency drop) for the first, 91.3 ± 9.7 Hz (frequency drop) for the second.

First: TTTTTCTGTTGCCCGGAACGTCGTGGCCCTTT (ssDNA, 5' C6 thiol) [PSAG11]
Second: TTTTTCTGGAATGATTTCCCGGTTGTCTCTTT (ssDNA, 5' C6 thiol) [PSAG15]
The binding signal of the first is lower: 19.2 ± 1.7 Hz (frequency drop) for the first, 108 ± 14 Hz (frequency drop) for the second.

Going from TTTTTCTGGTCCGGGTACGTTTTTTGGCCTTT (ssDNA, 5' C6 thiol) [PSAG17] to TTTTTACTTAATGCGGAACGTCGTGGCCCTTT (ssDNA, 5' C6 thiol) [PSAG112], the binding signal rises from 37.3 ± 1.9 Hz (frequency drop) to 71.7 ± 1.3 Hz (frequency drop).

Going from TTTTTCCGCACCGGGTACGGTCGTGGCCCTTT (ssDNA, 5' C6 thiol) [PSAG114] to TTTTTAATATCCGGGTACGTTTTTTGGCCTTT (ssDNA, 5' C6 thiol) [PSAG117], the binding signal rises from 63 ± 5.4 Hz (frequency drop) to 82.9 ± 5.8 Hz (frequency drop).

Target: T1, prostate specific antigen (PSA)
Assay: as above
Settings: protein: commercial; hairpin (predicted)
Remark: another data set of the same source

Going from TTTTTAATATCCGGGTTCCCGGTTGTCTCTTT (ssDNA, 5' C6 thiol) [PSAG24] to TTTTTAATATCCGGGGAACGTCGTGGCCCTTT (ssDNA, 5' C6 thiol) [PSAG28], the binding signal rises from 131 ± 4.9 Hz (frequency drop) to 166 ± 6.7 Hz (frequency drop).

With TTTTTACGCACCGGGTACGTTTTTTGGCCTTT (ssDNA, 5' C6 thiol) [PSAG212] the binding signal was 59.5 ± 5.8 Hz (frequency drop).

Each binder was assayed against T1, prostate specific antigen (PSA) (assay: SPR; ka 3.37e3 M-1s-1, kd 12.34e-3 s-1; PBS (10 mM Na2HPO4, 137 mM NaCl, 2 mM KH2PO4, 2.7 mM KCl), pH 7.4; SPR at 25 C, 50 ul/min; PSA 2 ng/ml; DNA/PEG thiol SAM on gold; QCM temperature not stated). Settings: protein: commercial; hairpin (predicted).

In the case of TTTTTAATATCCGGGTTCCCGGTTGTCTCTTT (ssDNA, 5' C6 thiol) [PSAG24], the Ka is reported as 0.27 ± 0.04 10^6 M-1.

Each binder was assayed against T1, prostate specific antigen (PSA) (assay: SPR; ka 3.11e3 M-1s-1, kd 11.23e-3 s-1; PBS (10 mM Na2HPO4, 137 mM NaCl, 2 mM KH2PO4, 2.7 mM KCl), pH 7.4; SPR at 25 C, 50 ul/min; PSA 2 ng/ml; DNA/PEG thiol SAM on gold; QCM temperature not stated). Settings: protein: commercial; hairpin (predicted).

For TTTTTACGCACCGGGTACGTTTTTTGGCCTTT (ssDNA, 5' C6 thiol) [PSAG212], the Ka was 0.28 ± 0.03 10^6 M-1.
